According to paper PMC10931833, “Simultaneous Purification of Human Interferon Alpha-2b and Serum Albumin Using Bioprivileged Fluorinated Ionic Liquid-Based Aqueous Biphasic Systems” (International Journal of Molecular Sciences, 2024):

Assays:
IFN-α2b [1] = molecular target: T1, IFN-α2b (Homo sapiens, UniProt P01563); assay: Far-UV CD secondary structure of IFN-α2b (CONTIN-LL deconvolution); format: physicochemical
T1 construct: single non-glycosylated polypeptide chain with a molecular weight of 19 kDa, comprising 165 amino acids; purchased Millipore Sigma-Aldrich SRP4595-100UG; host or cells: E. coli
Text: Circular dichroism (CD) is widely used to study the secondary structures of proteins, peptides and nucleic acids, because it requires a low concentration sample, is a nondestructive method, allows studying a wide range of variables (temperature, pH, etc.), and provides information on the effect of added ligands on protein folding and interactions.
Circular dichroism (CD) spectra were collected in a 10 mm quartz cuvette and a Chirascan spectropolarimeter (Applied Photophysics, UK) at room temperature. All CD spectra were recorded in the far-UV range of 190 to 260 nm at scan rates of 50 nm/min, with 4 accumulations, and a response time of 3 s; CD spectra were collected. For each CD experiment, two distinct duplicates were acquired and combined. […] Spectral deconvolution was carried out with DichroWeb using the CONTIN-LL deconvolution algorithm with the SMP180 reference set.

IFN-α2b [2] = molecular target: T1, IFN-α2b; assay: CD thermal unfolding (Tm) of IFN-α2b; format: physicochemical
Description: The same analyses attained for 208 nm and 192 nm are illustrated in Figures S5 and S6 in the Supplementary Materials. The corresponding T m values are estimated by fitting to a sigmoid with four parameters (one-way ANOVA, significance level of 0.05) and summarized in Table S2 in the Supplementary Materials. The CD T m of 0.125 mg/mL native IFN- α 2b is in good agreement with what was previously reported. […] The estimated T m values are summarized in Table S2 in the Supplementary Materials. The same analysis is attained for 208 nm and 192 nm, as depicted in Figures S5 and S6 in the Supplementary Materials. All the CD T m results are summarized in Table S2 in the Supplementary Materials. The thermal stability assessed by far-UV CD is solely determined through the thermal decay of the alpha-helical structure.
The same analysis was attained for 208 nm and 192 nm as illustrated in Figure S13 in the Supplementary Materials. The corresponding T m values are depicted in Table 5, and were estimated by fitting a sigmoid with four parameters (one-way ANOVA, with a significance level of 0.05).

[3] = ref 44 (IFN-α2b), 91 (BSA), 96 (Lys); cited from earlier work
[4] = 0.125 mg/mL IFN-α2b in water, 25 °C
[5] = 0.099-0.12 mg/mL IFN-α2b in [N1112(OH)][C4F9SO3]-rich phase of BP#8

T1 sequence (P01563 24-188): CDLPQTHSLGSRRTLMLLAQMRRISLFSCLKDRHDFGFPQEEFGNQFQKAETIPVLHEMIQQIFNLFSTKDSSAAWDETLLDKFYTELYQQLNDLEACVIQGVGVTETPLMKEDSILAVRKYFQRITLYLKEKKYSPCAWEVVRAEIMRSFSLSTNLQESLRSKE

Substance: Human interferon-alpha 2b [IFN-α2b]
- Distorted Alpha Helix (IFN-α2b [1]; [4]): 0.145
- Distorted Beta Sheet (IFN-α2b [1]; [4]): 0.071
- Regular Alpha Helix (IFN-α2b [1]; [4]): 0.289
- Regular Beta Sheet (IFN-α2b [1]; [4]): 0.049
- Turns (IFN-α2b [1]; [4]): 0.209
- Unordered (IFN-α2b [1]; [4]): 0.238
- predicted α-helical content (IFN-α2b [1]; IFN-α2b in water, CD deconvolution): 0.44
- Tm, Ellipticity 192 nm (IFN-α2b [2]; 0.125 mg/mL IFN-α2b in water): 63.311 °C
- Tm, Ellipticity 208 nm (IFN-α2b [2]; 0.125 mg/mL IFN-α2b in water): 66.156 °C
- Tm, Ellipticity 222 nm (IFN-α2b [2]; 0.125 mg/mL IFN-α2b in water): 67.548 °C
- Tm, Ellipticity 192 nm (IFN-α2b [2]; [5]): 42.274 °C
- Tm, Ellipticity 208 nm (IFN-α2b [2]; [5]): 71.217 °C
- Tm, Ellipticity 222 nm (IFN-α2b [2]; [5]): 62.080 °C
- iso-electric point [3]: around 5.9
